Data on 1 substance can be found in patent publication US20220177580A1.

The assay concerns the target huFcγRIIa-131H (His-tagged, soluble, captured for SPR) (human) (UniProt P12318). The experiment in a line: SPR, His-tagged FcγR captured by anti-His antibody, antibody injected.

Sequence of huFcγRIIa-131H (His-tagged, soluble, captured for SPR) (human) (P12318 34-217 limits assumed): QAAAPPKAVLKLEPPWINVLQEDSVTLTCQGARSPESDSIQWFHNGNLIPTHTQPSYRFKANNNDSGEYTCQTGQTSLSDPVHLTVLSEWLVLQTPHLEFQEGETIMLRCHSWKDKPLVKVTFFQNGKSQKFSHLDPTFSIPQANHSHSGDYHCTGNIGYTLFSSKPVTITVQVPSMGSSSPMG

In turn, huIgG2 control (antibody) returned a dissociation constant (Kd) of 25 µM.

Broadly, the Kd is the constant that tells how readily two partners part at equilibrium. High values mean weaker binding, low ones tighter binding.
